Data on one substance can be found in publication PMC5524996.

What is called stoichiometry N is a count of units in the complex or per binding partner.

In this experiment the target is IssA (iron-sulfur storage protein A), native thioferrate-bound nanoparticle form from Pyrococcus furiosus (Pyrococcus furiosus). As to the kind of experiment: negative stain TEM; purified native IssA, untreated (20-300 nm) and after 3 M guanidinium chloride, 0.5 mM EDTA, 25 mM DTT (16-22 nm spheres); composition estimated from the volume of a 20 nm sphere, densities and the Fe:protein ratio.

With “IssA (iron-sulfur storage protein A), native thioferrate-bound nanoparticle form from Pyrococcus furiosus (natural protein)”, the stoichiometry N is 170.
